Key:
[1] = target: recombinant human TRAIL/Apo2 Ligand (rhTRAIL) (human) (UniProt P50591); assay: SDS-PAGE and Western blot; 100 ng rhTRAIL as positive control on the same blot; whether BS3 was added to it is not told
[2] = target: soluble TRAIL (sTRAIL), secretable trimer-forming variant of human TRAIL (human | yeast) (UniProt P50591); assay: cross-linking; 293T culture supernatant (48 h after transfection) with 1 mM BS3, 4-20% SDS-PAGE, Western blot with anti-TRAIL
[3] = target: soluble TRAIL (sTRAIL), secretable trimer-forming variant of human TRAIL (human | yeast) (UniProt P50591); assay: SDS-PAGE and Western blot without cross-linker; 293T culture supernatant (48 h after transfection) without BS3, 4-20% SDS-PAGE, Western blot with anti-TRAIL

Row | Substance | stoichiometry N [1] | stoichiometry N [2] | stoichiometry N [3]
1 | recombinant human TRAIL/Apo2 Ligand (rhTRAIL) (from UniProt P50591 1-281) | 3 | – | –
2 | soluble TRAIL (sTRAIL), secretable trimer-forming variant of human TRAIL (from UniProt P50591 114-281) (ligand) | – | 3 | 2
